Assays:
[1] = molecular target: the molecule itself; experiment: X-ray crystal structure (homotrimer in the asymmetric unit)
[2] = tested on: Dicamba; experiment: LC-MS/MS screen for oxygenase (DMO) activity: E. coli liquid culture expressing ddmC or a variant, grown with dicamba, DCSA detected in supernatant; format: cell-based
Description: An LC-MS/MS screen for oxygenase activity was used to detect DCSA. The method comprises a two stage process made up of a liquid cell culture assay coupled to an LC-MS/MS detection screen. In the liquid cell culture stage, the gene of interest, i.e. ddmC or a variant thereof, was cloned under the control of a promoter (e.g. T7 promoter, pET vector) and transformed into an E. coli host cell. […] Cells were spun down, and the supernatant was filtered and diluted tenfold with the inclusion of 8 μM salicylic acid as an internal standard. Samples of the supernatant, and/or optionally the cell pellet (or lysate thereof), from this first stage were analyzed for DCSA levels (i.e. DMO activity level) by LC-MS/MS.
While many oxygenases such as DMO are multi component systems requiring other helper enzymes for activity, it was observed that components in E. coli may substitute for these helper enzymes or functions. Thus, transformation of E. coli with a single “oxygenase” gene from a multi component system nevertheless results in measurable activity for the gene alone, even without other components being co-transformed into the same E. coli cell. Activity is observed because, in E. coli cells, surrogates with homology to the original helper enzymes (e.g. ferredoxin and reductase) may be utilized. Additionally, E. coli can take up substrate (e.g. dicamba) and excrete the product (e.g. DCSA) into the media supernatant, allowing for the speed and simplicity of this cell based screen. No lysis of cells is required. Alternatively, an HPLC-based assay for DMO activity may be utilized. Promising variants were used as templates for additional rounds DOT and or other mutagenesis methods in an iterative manner. […]
Sets of saturation mutagenesis primers (using NNS degenerate triplets) for 31 residues at the active site and involved in the electron transfer chain as indicated in Table 28 were designed and used to introduce mutations into the ddmC gene by means of terminated PCR on the template (ddmC gene with His tag and two changes, T2S+I123L (SEQ ID NO:23) in pMV4 vector (Modular Genetics, Cambridge, Mass.). Resulting PCR products were treated with DpnI to remove the parental template molecules, self-annealed and transformed into chemically competent E. coli Top10 F′ (Invitrogen, Carlsbad, Calif.). Standard DNA cloning methods were utilized (e.g. Sambrook et al., 1989). The individual colonies were grown in liquid culture. DNA was isolated by a standard miniprep procedure and used to transform the chemically competent E. coli (e.g. BL21(DE3)). […] Cells were spun down, and the supernatant was filtered and diluted tenfold with 8 μM salicylic acid as an internal standard. The DCSA levels (i.e. DMO activity level) were determined by LC-MS analysis as described above (e.g. Example 8).
Additional single substitution variants of DMO at residues corresponding to interaction (e.g. subunit interface) domains and the ferredoxin binding site were also prepared and assayed for their effect on enzymatic activity (See also Examples 8A, 8B) by the LC/MS screen. In most cases shown in Table 29, one conservative and one neutral substitution was tried at a given residue.
Table 30 lists DMO activity data (by LC/MS screen) for 58 variants relative to ddmC_M—6his (the wild type ddmC sequence with an N-terminal His tag (SEQ ID NO: 154), while Table 31 lists DMO activity data (by LC/MS screen) for 1685 variants relative to ddmC_RLE6his (the wild type ddmC sequence with T2S and I123L mutations (SEQ ID NO:23), and a C-terminal 6×His tag). The numbering of residues is based on the numbering found in SEQ ID NO:2 or SEQ ID NO:3.

B1: dicamba monooxygenase (DMO) (enzyme)
chain: MATFVRNAWYVAALPEELSEKPLGRTILDTPLALYRQPDGVVAALLDICPHRFAPLSDGILVNGHLQCPYHGLEFDGGGQCVHNPHGNGARPASLNVRSFPVVERDALIWIWPGDPALADPGAIPDFGCRVDPAYRTVGGYGHVDCNYKLLVDNLMDLGHAQYVHRANAQTDAFDRLEREVIVGDGEIQALMKIPGGTPSVLMAKFLRGANTPVDAWNDIRWNKVSAMLNFIAVAPEGTPKEQSIHSRGTHILTPETEASCHYFFGSSRNFGIDDPEMDGVLRSWQAQALVKEDKVVVEAIERRRAYVEANGIRPAMLSCDEAAVRVSREIEKLEQLEAARLEHHHHHH
notes: also called DMOw; DdmC
Does B1 bind [1]?
Result: binds

B2: R248M: DMO substitution variant (protein)
chain: MATFVRNAWYVAALPEELSEKPLGRTILDTPLALYRQPDGVVAALLDICPHRFAPLSDGILVNGHLQCPYHGLEFDGGGQCVHNPHGNGARPASLNVRSFPVVERDALIWICPGDPALADPGAIPDFGCRVDPAYRTVGGYGHVDCNYKLLVDNLMDLGHAQYVHRANAQTDAFDRLEREVIVGDGEIQALMKIPGGTPSVLMAKFLRGANTPVDAWNDIRWNKVSAMLNFIAVAPEGTPKEQSIHSMGTHILTPETEASCHYFFGSSRNFGIDDPEMDGVLRSWQAQALVKEDKVVVEAIERRRAYVEANGIRPAMLSCDEAAVRVSREIEKLEQLEAARLEHHHHHH
Which results are given for B2?
Changed to: M % of control for set ([2]; residue changed to M, DCSA relative to control average of the data set): 128.37%; Changed to: M DCSA values (ppm) ([2]; residue changed to M, mean +/− SD (n)): 34.13 +/− 3.09 (4) ppm

B3: R248K: DMO substitution variant (protein)
chain: MATFVRNAWYVAALPEELSEKPLGRTILDTPLALYRQPDGVVAALLDICPHRFAPLSDGILVNGHLQCPYHGLEFDGGGQCVHNPHGNGARPASLNVRSFPVVERDALIWICPGDPALADPGAIPDFGCRVDPAYRTVGGYGHVDCNYKLLVDNLMDLGHAQYVHRANAQTDAFDRLEREVIVGDGEIQALMKIPGGTPSVLMAKFLRGANTPVDAWNDIRWNKVSAMLNFIAVAPEGTPKEQSIHSKGTHILTPETEASCHYFFGSSRNFGIDDPEMDGVLRSWQAQALVKEDKVVVEAIERRRAYVEANGIRPAMLSCDEAAVRVSREIEKLEQLEAARLEHHHHHH
Which “Changed to: K % of control for set” value ([2]; residue changed to K, DCSA relative to control average of the data set) does the source give for B3 here?
The value was 155.15%.

What about the “Changed to: K DCSA values (ppm)” value ([2]; residue changed to K, mean +/− SD (n)) of the same molecule?
The value was 41.25 +/− 4.05 (4) ppm.

B4: R248L: DMO substitution variant (protein)
chain: MATFVRNAWYVAALPEELSEKPLGRTILDTPLALYRQPDGVVAALLDICPHRFAPLSDGILVNGHLQCPYHGLEFDGGGQCVHNPHGNGARPASLNVRSFPVVERDALIWICPGDPALADPGAIPDFGCRVDPAYRTVGGYGHVDCNYKLLVDNLMDLGHAQYVHRANAQTDAFDRLEREVIVGDGEIQALMKIPGGTPSVLMAKFLRGANTPVDAWNDIRWNKVSAMLNFIAVAPEGTPKEQSIHSLGTHILTPETEASCHYFFGSSRNFGIDDPEMDGVLRSWQAQALVKEDKVVVEAIERRRAYVEANGIRPAMLSCDEAAVRVSREIEKLEQLEAARLEHHHHHH
Which “Changed to: L % of control for set” value ([2]; residue changed to L, DCSA relative to control average of the data set) does the source give for B4 here?
Its value is 153.00%.

And the “Changed to: L DCSA values (ppm)” value ([2]; residue changed to L, mean +/− SD (n))?
Its value is 40.68 +/− 10.77 (4) ppm.

B5: L282I: DMO substitution variant (protein)
chain: MATFVRNAWYVAALPEELSEKPLGRTILDTPLALYRQPDGVVAALLDICPHRFAPLSDGILVNGHLQCPYHGLEFDGGGQCVHNPHGNGARPASLNVRSFPVVERDALIWICPGDPALADPGAIPDFGCRVDPAYRTVGGYGHVDCNYKLLVDNLMDLGHAQYVHRANAQTDAFDRLEREVIVGDGEIQALMKIPGGTPSVLMAKFLRGANTPVDAWNDIRWNKVSAMLNFIAVAPEGTPKEQSIHSRGTHILTPETEASCHYFFGSSRNFGIDDPEMDGVIRSWQAQALVKEDKVVVEAIERRRAYVEANGIRPAMLSCDEAAVRVSREIEKLEQLEAARLEHHHHHH
For B5, which “Changed to: I % of control for set” value ([2]; residue changed to I, DCSA relative to control average of the data set) is on record?
Its value is 116.03%.

And the “Changed to: I DCSA values (ppm)” value ([2]; residue changed to I, mean +/− SD (n))?
The value was 44.35 +/− 1.22 (4) ppm.

B6: Control: control (wild type) DMO of the Table 29 LC/MS screen (protein, UniProt Q5S3I3 2-339, looked up)
Dicamba O-demethylase, …: TFVRNAWYVAALPEELSEKPLGRTILDTPLALYRQPDGVVAALLDICPHRFAPLSDGILVNGHLQCPYHGLEFDGGGQCVHNPHGNGARPASLNVRSFPVVERDALIWIWPGDPALADPGAIPDFGCRVDPAYRTVGGYGHVDCNYKLLVDNLMDLGHAQYVHRANAQTDAFDRLEREVIVGDGEIQALMKIPGGTPSVLMAKFLRGANTPVDAWNDIRWNKVSAMLNFIAVAPEGTPKEQSIHSRGTHILTPETEASCHYFFGSSRNFGIDDPEMDGVLRSWQAQALVKEDKVVVEAIERRRAYVEANGIRPAMLSCDEAAVRVSREIEKLEQLEAA
How did the “Control DCSA Produced (ppm) Set 1 average (±SD)” value ([2]; Set 1 average) turn out when B6 was run?
Its value is 38.22 ± 7.81 ppm.

What about the “Control DCSA Produced (ppm) Set 2 average (±SD)” value ([2]; Set 2 average) of the same molecule?
The value was 26.59 ± 4.96 ppm.

What about the “Control DCSA Produced (ppm) Set 3 average (±SD)” value ([2]; Set 3 average) of the same molecule?
Its value is 38.00 ± 6.87 ppm.

— US20090081760A1, “DMO METHODS AND COMPOSITIONS” (priority 2007, published 2009)
